One may read the kcat as the maximal rate divided by the concentration of active sites.

In experiment [1] the target is T1, carboxypeptidase Y (CPD-Y) variant E65A (Glu65 replaced by alanine) (Saccharomyces cerevisiae, UniProt P00729, E176A).
T1 construct: made in house; host or cells: S. cerevisiae W2579 (secreted)
The experiment in a line: Aminolysis; KN(app) of nucleophile. The format is biochemical, yeast. To be noted: Table VI; substance of the line is the substrate (leaving group varied), pH 7.5. As for the experimental part:
(§1) Aminolysis reactions were carried out in the following way. The nucleophile was dissolved in 50 mM Hepes, 5 mM EDTA and pH was adjusted to 7.5. Five (5) μl of substrate (8 mM FA-Ala-OBzl in methanol) was added to 190 μl nucleophile solution followed by 5 μl enzyme, resulting in a substrate concentration of 0.2 mM. For reactions carried out at pH 9.5, Hepes was replaced with Ches. During the reaction, 20 μl aliquots were removed from the reaction mixture and added to 50 μl 1% trifluoroacetic acid to quench the reaction. The reactant composition was determined by HPLC using a Waters HPLC equipped with a C-18 Waters Novapac 4μ reverse phase column and various gradients of acetonitrile in 0.1% trifluoroacetic acid. The separation was monitored at 302 nm allowing the direct quantification of the products from the integrated peak areas. The composition of the reaction mixture was determined at least twice during the reaction, the first time when 20-50% (preferably 35%) of the ester substrate had been consumed in the reaction and the second time when 50-90% (preferably 80%) of the substrate had been consumed. The products were collected and identified by amino acid analysis after acid hydrolysis using a Pharmacia Alpha Plus analyzer.
(§2) Further identification was obtained by co-chromatography of authentic standard compounds. The fraction of aminolysis (fa) was expressed as the ratio between the formed aminolysis product and the sum of all products being formed, i.e., unconsumed substrate was disregarded in the calculations. The KN(app), representing the nucleophile concentration at which fa is half the maximum value (a measure for the dissociation constant of the nucleophile), and famax (the highest possible fa obtained at saturation of the enzyme with nucleophile) were determined by fitting the values of fa obtained at a minimum of seven concentrations of nucleophile to a saturation. The value of fa obtained at the highest possible nucleophile concentration is designated fasat.
(§3) Aminolysis reactions were carried out in the following way. The nucleophile was dissolved in 50 mM HEPES, 5 mM EDTA and pH was adjusted to 7.5, 5 μl substrate (8 mM FA-Ala-OBzl or FA-Ala-Xaa-OH in methanol) was added to 190 μl nucleophile solution followed by 5 μl enzyme diluted in buffer to the appropriate concentration, resulting in a substrate concentration of 0.2 mM. During the reaction, 20 μl aliquots were removed from the reaction mixture and added to 50 μl 1% trifluoroacetic acid to quench the reaction. The reactant composition was determined by HPLC using a Waters HPLC equipped with a C-18 Waters Novapac 4μ reverse phase column and various gradients of acetonitrile in 0.1% trifluoroacetic acid. The separation was monitored at 302 nm allowing the direct quantification of the products from the integrated peak areas. The products were collected and identified by amino acid analysis after acid hydrolysis (Pharmacia Alpha Plus analyzer) and by co-chromatography of authentic standards. The fraction of aminolysis (fa) was expressed as the ratio between the formed aminolysis product and the sum of all products being formed, i.e. unconsumed substrate was disregarded in the calculations. The KN,app (a measure for the dissociation constant of the nucleophile) and famax (the highest possible fa obtained at saturation with nucleophile were determined by fitting the obtained fa values to the equation fa=famax /(1+KN,app /N).

The target in experiment [2] is T2, carboxypeptidase Y (CPD-Y) variant N51Q (Asn51 replaced with glutamine) (Saccharomyces cerevisiae, UniProt P00729, N162Q).
T2 construct: made in house; host or cells: S. cerevisiae W2579 (secreted)
T2 sequence (P00729 112-532 N162Q): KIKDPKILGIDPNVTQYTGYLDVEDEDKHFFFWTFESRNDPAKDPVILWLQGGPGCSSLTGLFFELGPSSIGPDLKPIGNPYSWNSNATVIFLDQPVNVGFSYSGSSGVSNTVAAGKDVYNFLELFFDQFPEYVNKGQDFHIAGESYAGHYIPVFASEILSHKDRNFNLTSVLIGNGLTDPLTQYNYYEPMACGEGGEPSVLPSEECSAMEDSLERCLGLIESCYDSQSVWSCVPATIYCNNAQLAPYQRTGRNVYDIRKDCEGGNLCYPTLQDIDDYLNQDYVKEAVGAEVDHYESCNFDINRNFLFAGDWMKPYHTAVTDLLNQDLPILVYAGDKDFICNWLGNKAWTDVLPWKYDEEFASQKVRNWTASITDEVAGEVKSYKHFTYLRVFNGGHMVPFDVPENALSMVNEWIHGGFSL
The experiment in a line: Aminolysis; KN(app) of nucleophile. It counts as biochemical, yeast. As to conditions: Table VI; substance of the line is the substrate (leaving group varied), pH 7.5. As to the method:
as §1, §2, §3

The target of experiment [3] is T3, carboxypeptidase Y (CPD-Y) variant E145A (Glu145 replaced by alanine) (Saccharomyces cerevisiae, UniProt P00729, E256A).
T3 construct: made in house; host or cells: S. cerevisiae W2579 (secreted)
T3 sequence (P00729 112-532 E256A): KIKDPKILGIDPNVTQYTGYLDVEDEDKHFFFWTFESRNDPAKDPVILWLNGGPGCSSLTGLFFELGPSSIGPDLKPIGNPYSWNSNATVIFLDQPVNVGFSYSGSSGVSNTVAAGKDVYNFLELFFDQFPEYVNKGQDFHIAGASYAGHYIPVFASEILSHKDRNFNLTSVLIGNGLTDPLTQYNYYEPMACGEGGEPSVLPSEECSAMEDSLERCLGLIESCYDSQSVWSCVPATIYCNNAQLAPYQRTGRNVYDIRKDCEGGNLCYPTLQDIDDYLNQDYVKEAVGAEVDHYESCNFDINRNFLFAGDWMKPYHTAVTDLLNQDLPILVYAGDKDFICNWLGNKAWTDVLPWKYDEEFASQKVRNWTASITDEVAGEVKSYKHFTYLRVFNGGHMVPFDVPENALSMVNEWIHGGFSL
The experiment in a line: Aminolysis; KN(app) of nucleophile. The format is biochemical, yeast. To be noted: Table VI; substance of the line is the substrate (leaving group varied), pH 7.5. As for the experimental part:
as §1, §2, §3

Experiment [4] addresses T4, carboxypeptidase Y (CPD-Y) variant N51S (Asn51 replaced with serine) (Saccharomyces cerevisiae, UniProt P00729, N162S).
T4 construct: made in house; host or cells: S. cerevisiae W2579 (secreted)
T4 sequence (P00729 112-532 N162S): T2 sequence (P00729 112-532 N162Q) with Q51S
The experiment in a line: Aminolysis; KN(app) of nucleophile. It counts as biochemical, yeast. As to conditions: Table VI; substance of the line is the substrate (leaving group varied), pH 7.5. As for the experimental part:
as §1, §2, §3

Experiment [5] concerns the target T5, yeast carboxypeptidase Y (CPD-Y), wild type (SEQ ID NO:32) (Saccharomyces cerevisiae, UniProt P00729).
T5 construct: purchased Carlbiotech, Copenhagen, Denmark
T5 sequence (P00729 112-532): T2 sequence (P00729 112-532 N162Q) with Q51N
Nature of the experiment: Aminolysis of ester/peptide substrates; KN(app) of nucleophile. It counts as biochemical. To be noted: Table VI; substance of the line is the substrate (leaving group varied), pH 7.5. As to the method:
as §1, §2, §3

Experiment [6] addresses T5, yeast carboxypeptidase Y (CPD-Y), wild type (SEQ ID NO:32). The experiment in a line: Hydrolysis of FA-Phe-Val-OH. It counts as biochemical.

Numbering of substitutions follows the chain as printed.

T1 sequence (P00729 112-532 E176A): as the sequence (P00729 112-532 E256A) above, with E65A, A145E counted along it

Consider `CC(C)[C@H](NC(=O)[C@H](C)NC(=O)C=Cc1ccco1)C(=O)O` [FA--Ala--Val--OH, FA-Ala-Val-OH], for which the “Kn,app (H-Val-NH2 as nucleophile)” value is reported as 5.7 ± 0.3 mM in experiment [1]; 2.4 ± 0.1 mM in [2]; 4.2 ± 0.2 mM in experiment [3]; 1.8 ± 0.1 mM in experiment [4]; 1.5 ± 0.1 mM in experiment [5].
As to `C[C@H](NC(=O)[C@H](C)NC(=O)C=Cc1ccco1)C(=O)O` [FA--Ala--Ala--OH, FA-Ala-Ala-OH], the “Kn,app (H-Val-NH2 as nucleophile)” value in [1] was 5.2 ± 0.5 mM; in experiment [2] it was 3.1 ± 0.1 mM; in experiment [4], 1.9 ± 0.1 mM; in [5], 1.8 ± 0.1 mM.
Regarding carboxypeptidase Y mutant N51Q (enzyme), the kcat/KM of hydrolysis with FA-Phe-Val-OH was determined as 300000 M⁻¹ s⁻¹. Also, the famax of transpeptidation (nucleophile H-Val-NH2) was 0.98 in the experiment with FA-Ala-Ala-OH, 0.8 with FA-Ala-Leu-OH, 0.91 with FA-Ala-Val-OH and 0.77 in the experiment with FA-Ala-Phe-OH.
For carboxypeptidase Y (enzyme), the famax of transpeptidation (nucleophile H-Gly-NH2) worked out at 0.93 in the experiment with FA-Ala-Gln-OH and 0.99 with FA-Ala-Lys-OH. Moreover, the famax of transpeptidation (nucleophile H-Val-NH2) with FA-Ala-Arg-OH came out at 1; with FA-Ala-Ala-OH it was 0.94; with FA-Ala-Leu-OH it was 0.16; with FA-Ala-Val-OH, 0.22; with FA-Ala-Phe-OH, 0.06. Moreover, the kcat/Km of hydrolysis turned out to be 400 M⁻¹ s⁻¹ with CBZ-Lys-Leu-OH; 200000 M⁻¹ s⁻¹ with CBZ-Ser-Leu-OH; 6.33e+06 M⁻¹ s⁻¹ with CBZ-Phe-Leu-OH; 7330 M⁻¹ s⁻¹ in the experiment with CBZ-Glu-Leu-OH; 600000 M⁻¹ s⁻¹ with CBZ-Ala-Leu-OH. Further, the estimated CPD-Y activity relative to wild type transformants (fold of wild type) with CBZ-Pro-Leu-OH, in the experiment with CBZ-Gly-Leu-OH, with CBZ-Trp-Leu-OH and in the experiment with CBZ-His-Leu-OH was 1 throughout. Further, the kcat/KM of hydrolysis with FA-Phe-Val-OH was determined as 2.33e+06 M⁻¹ s⁻¹.
Turning to `C[C@H](NC(=O)C=Cc1ccco1)C(=O)OCc1ccccc1` [FA--Ala--OBzl, FA-Ala-OBzl], the “Kn,app (H-Val-NH2 as nucleophile)” value in [1] was determined as 4.2 ± 0.01 mM; in experiment [2], 3.1 ± 0.4 mM; in [3] it was 3.4 ± 0.4 mM; in experiment [4], 1.6 ± 0.1 mM; in experiment [5], 1.7 ± 0.1 mM.
On to `CC(C)[C@H](NC(=O)[C@H](Cc1ccccc1)NC(=O)C=Cc1ccco1)C(=O)O` [FA-Phe-Val-OH], for which, in [6], the kcat amounted to 108.3 s⁻¹ and the “kcat /KM” value was determined as 2.33333e+06 M⁻¹ s⁻¹.
